Where a SMILES comes first, the peptide text is derived from it. [ ]: non-standard residue; d: D form. Dolaproine = CO[C@@H]([C@@H]1CCCN1)[C@@H](C)C(=O)O; Dil = CC[C@H](C)[C@H](NC)[C@@H](CC(=O)O)OC; NMeV = CN[C@H](C(=O)O)C(C)C
T1: human FSHR (Homo sapiens, UniProt P23945)
T1 construct: a fragment containing the FSHR gene was obtained by PCR with the cDNA as a template and FSHR-F and FSHR-R as primers; expressed in transfected cells; host or cells: HEK293T
T1 sequence (P23945 18-695): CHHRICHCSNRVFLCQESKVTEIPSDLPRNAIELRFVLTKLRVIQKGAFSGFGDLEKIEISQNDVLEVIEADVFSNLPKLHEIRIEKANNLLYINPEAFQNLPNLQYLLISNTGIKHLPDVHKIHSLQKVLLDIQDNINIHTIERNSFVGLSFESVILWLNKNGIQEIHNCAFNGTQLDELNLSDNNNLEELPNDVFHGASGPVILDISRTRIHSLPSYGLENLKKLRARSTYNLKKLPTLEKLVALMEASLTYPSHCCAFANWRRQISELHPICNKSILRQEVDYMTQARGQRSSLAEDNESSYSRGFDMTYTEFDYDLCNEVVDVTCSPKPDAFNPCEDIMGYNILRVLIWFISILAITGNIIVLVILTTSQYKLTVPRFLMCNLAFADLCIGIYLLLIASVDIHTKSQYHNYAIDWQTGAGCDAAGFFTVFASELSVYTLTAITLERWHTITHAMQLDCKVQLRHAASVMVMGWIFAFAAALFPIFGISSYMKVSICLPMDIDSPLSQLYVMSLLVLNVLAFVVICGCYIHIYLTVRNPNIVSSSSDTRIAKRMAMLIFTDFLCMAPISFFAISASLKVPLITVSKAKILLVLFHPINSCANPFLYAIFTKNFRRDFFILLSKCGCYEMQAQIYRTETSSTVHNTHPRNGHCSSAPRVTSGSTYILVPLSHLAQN


Columns and labels:
[1] = system: OVCAR-3; assay: Cell killing assay, OVCAR-3; format: cell-based; details: OVCAR-3 human ovarian cancer cell line
Method: (§1) In this example, the anti-cancer effect of CAN001 antibody-drug conjugate was tested with CellTiter-Glo cell viability assay in a 96-well plate.
(§2) Human ovarian cancer cell lines: OVCAR-3, A2780, and 3A0, all from ATCC.
(§3) Cells were seeded in a 96-well cell culture plate with 1,000 cells per well, and the total amount of the culture medium per well was controlled to 200 μL. After the cells adhered to the wall, the cells were treated with corresponding drugs, and the drugs were withdrawn at different time points (0, 24 h, 48 h, 72 h and 96 h), and MTS detection solution (10 μL MTS reagent+190 μL complete medium) (MTS cell proliferation kit (colorimetry) from AmyJet Scientific) was added. Then, the 96-well cell culture plate was incubated in a CO2 cell incubator for about 2 h away from light. Then, the cell culture plate was taken out and was measured at a wavelength of 492 nm to determine the absorbances of different groups of cells.
(§4) % inhibition and IC50 of each compound were calculated with XLFit curve fitting software.

[2] = system: 3AO; assay: Cell killing assay, 3AO; format: cell-based; details: 3AO human ovarian cancer cell line
Method: as §1, §2, §3, §4

[3] = system: A2780; assay: Cell killing assay, A2780; format: cell-based; details: A2780 human ovarian cancer cell line
Method: as §1, §2, §3, §4

[4] = target: T1, human FSHR; assay: Flow cytometry analysis of CAN001 antibody on HEK293T cells expressing FSHR; format: binding; details: for positive stained rate of the HEK293T cells: HEK293T cells expressing FSHR
Method: HEK293T cells were transfected with pMSGβ3_FSHR plasmid to obtain HEK293T cells expressing FSHR as the experimental group. HEK293T cells were transfected with pmaxGFP(Lonza) to obtain HEK293T cells expressing GFP protein as the negative control. After incubation with the supernatant containing the CAN001 antibody obtained in Example 3, the cells of the experimental group and negative control were stained with the CAN001 antibody and then the cells were washed and incubated with APC conjugated goat anti-mouse IgG secondary antibody. Flow cytometry was done with BD calibur and analyzed with Cellquest software.
In order to further screen the best CAN001 supernatant, HEK293T cells were co-transfected with a mixture of plasmids pcDNA3.1_CAN001 HC and pcDNA3.1_CAN001 LC with different proportions (mass ratios of pcDNA3.1_CAN001 HC to pcDNA3.1_CAN001 LC from left to right in FIG. 3 were 1:2, 1:1 and 1:3 respectively) and 25 kD linear PEI polymer according to a mass ratio of vector to polymer of 1:3. Seventy-two hours after transfection, the supernatant was collected and used to stain HEK293T cells expressing FSHR, and HEK293T cells expressing GFP protein were used as the negative control. The steps were as described above. […] The mass ratio of pcDNA3.1_CAN001 HC to pcDNA3.1_CAN001 LC of 1:2 was selected to prepare the supernatant containing CAN001 antibody.

| Molecule | IC50 [1] | IC50 [2] | IC50 [3] | staining of FSHR-expressing versus GFP-expressing HEK293T cells ([4]; supernatant containing CAN001 antibody, APC goat anti-mouse IgG secondary, GFP-expressing cells as negative control) | positive stained rate of the HEK293T cells ([4]; supernatant from mass ratio pcDNA3.1_CAN001 HC to LC 1:1) | positive stained rate of the HEK293T cells ([4]; supernatant from mass ratio pcDNA3.1_CAN001 HC to LC 1:2) | positive stained rate of the HEK293T cells ([4]; supernatant from mass ratio pcDNA3.1_CAN001 HC to LC 1:3) |
| --- | --- | --- | --- | --- | --- | --- | --- |
| CC[C@H](C)[C@@H]([C@@H](CC(=O)N1CCC[C@H]1[C@H](OC)[C@@H](C)C(=O)N[C@@H](Cc1ccccc1)C(=O)O)OC)N(C)C(=O)[C@@H](NC(=O)[C@@H](NC)C(C)C)C(C)C [MMAF, monomethylauristatin F] (H-[NMeV]V[Dil][Dolaproine]F-OH) | 205 nM | 301 nM | 223 nM |  |  |  |  |
| CAN001: Mouse anti-human FSHR monoclonal antibody; light chain SEQ ID NO: 3, heavy chain SEQ ID NO: 4 (protein, Light chain amino acid sequence; Heavy chain amino acid sequence) light: MALPVTALLLPLALLLHAARPQIVLTQSPVIMSASPGEKVTLTCSASSSVSSSYLYWYQQKPGSSSKLWIYSTSNLASGVPARFSGSGSGTSYSLTISSMEAEDAASYFCHQWSSYPPTFGGGTKLEIKRADAAPTVSIFPPSSEQLTSGGASVVCFLNNFYPKDINVKWKIDGSERQNGVLNSWTDQDSKDSTYSMSSTLTLTKDEYERHNSYTCEATHKTSTSPIVKSFNRNEC heavy: MEFGLSWVFLVALFRGVQCASQVQLQQPGAELVKPGASVNLSCKASGYTFTSYWMHWVKQRPGQGREWIGEINPRNGRTNYNEKFKSKATLTVDKSSSTAYMQLSSLTSEDSAVYCCARLSVGFAYWGQGTLVTVSAAKTTAPSVYPLAPVCGDTTGSSVTLGCLVKGYFPEPVTLTWNSGSLSSGVHTFPAVLQSDLYTLSSSVTVTSSTWPSQSITCNVAHPASSTKVDKKLEPRGPTIKPCPPCKCPAPNAAGGPSVFIFPPKIKDVLMISLSPIVTCVVVDVSEDDPDVQISWFVNNVEVHTAQTQTHREDYNSTLRVVSALPIQHQDWMSGKEFKCKVNNKDLGAPIERTISKPKGSVRAPQVYVLPPPEEEMTKKQVTLTCMVTDFMPEDIYVEWTNNGKTELNYKNTEPVLDSDGSYFMYSKLRVEKKNWVERNSYSCSVVHEGLHNHHTTKSFSRTPGK | > 1000 nM |  |  | specifically stained FHSR-expressing cells but not GFP-expressing cells | 30.02% | 38.3% | 34.75% |

Reference: patent US20240043548A1, “PREPARATION AND USE OF ANTI-FSHR ANTIBODY AND ANTIBODY-DRUG CONJUGATE THEREOF” (CANWELL (GZ) BIOTECH LIMITED, priority 2020, published 2024)
